In patent US20250152742A1, “COMPOSITIONS AND METHODS FOR NEUROLOGICAL DISEASES” (Trames Bio, Inc., priority 2022, published 2025):

Tested on: engineered chimeric receptor SEQ ID NO: 33 and its mutants (human α7-nAChR ligand binding domain / human GlyRα1 ion pore domain) in Lenti-X 293T cells
Assay: YFP fluorescence quenching anion reporter plate reader assay (percent quench, EC50)
Assay type: cell-based
Details: for YFP fluorescence quenching using CNL001 (percent quench): receptor named in row; for YFP fluorescence quenching using Facinicline, 30 nM fac: ligand Facinicline 30 nM; for YFP fluorescence quenching using Facinicline, 300 nM fac: ligand Facinicline 300 nM; for YFP fluorescence quenching using Facinicline, 30 uM fac: ligand Facinicline 30 uM; for YFP fluorescence quenching using TC-6987, 1 uM tc6987: ligand TC-6987 1 uM; for YFP fluorescence quenching using TC-6987, 10 uM tc6987: ligand TC-6987 10 uM; for YFP fluorescence quenching using TC-6987, 500 uM tc6987: ligand TC-6987 500 uM; for YFP fluorescence quenching using Varenicline, 3 nM var: ligand Varenicline 3 nM; for YFP fluorescence quenching using Varenicline, 30 nM var: ligand Varenicline 30 nM; for YFP fluorescence quenching using Varenicline, 300 nM var: ligand Varenicline 300 nM; for YFP fluorescence quenching using Varenicline, 500 nM var: ligand Varenicline 500 nM; for YFP fluorescence quenching using Varenicline, 1 uM var: ligand Varenicline 1 uM
In short: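 Percent quench compares mean YFP signal over the final 10 s with the 15 s baseline before ligand, added in iodide-containing extracellular solution (pH 7.2). Cells were LX293T carrying a YFP anion reporter, transiently transfected with the channel construct; plates were preincubated 30 min at 37 °C.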

[1] = 1 nM CNL001, first column so headed
[2] = 1 nM CNL001, second column so headed
[3] = 3 nM brd (TC-5619/Bradanicline)
[4] = 10 nM CNL001, first column so headed
[5] = 10 nM CNL001, second column so headed
[6] = 30 nM brd (TC-5619/Bradanicline)
[7] = 50 nM CNL001, first column so headed
[8] = 50 nM CNL001, second column so headed
[9] = 100 nM CNL001, first column so headed
[10] = 100 nM CNL001, second column so headed
[11] = 300 nM brd (TC-5619/Bradanicline)
[12] = 1 uM CNL001, first column so headed
[13] = 1 uM CNL001, second column so headed

B1: CODA807: engineered receptor: Y115D, L131E in SEQ ID NO: 33 (protein)
chain: MRCSPGGVWLALAASLLHVSLQGEFQRKLYKELVKNYNPLERPVANDSQPLTVYFSLSLLQIMDVDEKNQVLTTNIWLQMSWTDHYLQWNVSEYPGVKTVRFPDGQIWKPDILLDNSADERFDATFHTNVEVNSSGHCQYLPPGIFKSSCPMDLKNFPMDVQTCKLKFGSWSYGGWSLDLQMQEADISGYIPNGEWDLVGIPGKRSERFYECCKEPYPDVTFTVTMRRRMGYYLIQMYIPSLLIVILSWISFWINMDAAPARVGLGITTVLTMTTQSSGSRASLPKVSYVKAIDIWMAVCLLFVFSALLEYAAVNFVSRQHKELLRFRRKRRHHKSPMLNLFQEDEAGEGRFNFSAYGMGPACLQAKDGISVKGANNSNTTNPPPAPSKSPEEMRKLFIQRAKKIDKISRIGFPMAFLIFNMFYWIIYKIVRREDVHNQ
modifications: synthetic sequence of chimeric LGIC
[1]
  YFP fluorescence quenching using CNL001 (percent quench): 0.885%
[2]
  YFP fluorescence quenching using CNL001 (percent quench): −1.707%
1 nM brd (TC-5619/Bradanicline)
  YFP fluorescence quenching using TC-5619/Bradanicline (percent quench): −1.52%
[3]
  YFP fluorescence quenching using TC-5619/Bradanicline (percent quench): −5.35%
[4]
  YFP fluorescence quenching using CNL001 (percent quench): −0.567%
[5]
  YFP fluorescence quenching using CNL001 (percent quench): 0.043%
10 nM brd (TC-5619/Bradanicline)
  YFP fluorescence quenching using TC-5619/Bradanicline (percent quench): −3.49%
30 nM TC-6683
  YFP fluorescence quenching using TC-6683 (percent quench): −26.801%
[6]
  YFP fluorescence quenching using TC-5619/Bradanicline (percent quench): −2.16%
[7]
  YFP fluorescence quenching using CNL001 (percent quench): 5.141%
[8]
  YFP fluorescence quenching using CNL001 (percent quench): 9.409%
50 nM abt (ABT-126)
  YFP fluorescence quenching using ABT-126 (percent quench): −1.68%
[9]
  YFP fluorescence quenching using CNL001 (percent quench): 9.796%
[10]
  YFP fluorescence quenching using CNL001 (percent quench): 11.009%
100 nM CNL002
  YFP fluorescence quenching (percent quench): −5.71%
100 nM abt (ABT-126)
  YFP fluorescence quenching using ABT-126 (percent quench): −2.25%
100 nM azd0328
  YFP fluorescence quenching using AZD-0328 (percent quench): 24.49%
100 nM brd (TC-5619/Bradanicline)
  YFP fluorescence quenching using TC-5619/Bradanicline (percent quench): 4.18%
300 nM TC-6683
  YFP fluorescence quenching using TC-6683 (percent quench): −25.363%
300 nM abt (ABT-126)
  YFP fluorescence quenching using ABT-126 (percent quench): −2.37%
300 nM azd0328
  YFP fluorescence quenching using AZD-0328 (percent quench): 45.34%
[11]
  YFP fluorescence quenching using TC-5619/Bradanicline (percent quench): 70.2%
[12]
  YFP fluorescence quenching using CNL001 (percent quench): 27.914%
[13]
  YFP fluorescence quenching using CNL001 (percent quench): 29.109%
1 uM CNL002
  YFP fluorescence quenching (percent quench): 13.03%
1 uM abt (ABT-126)
  YFP fluorescence quenching using ABT-126 (percent quench): 3.68%
1 uM brd (TC-5619/Bradanicline)
  YFP fluorescence quenching using TC-5619/Bradanicline (percent quench): 43.11%
3 uM TC-6683
  YFP fluorescence quenching using TC-6683 (percent quench): −23.651%
10 uM ach (acetylcholine)
  YFP fluorescence quenching (percent quench): 15.45%
30 uM CNL002
  YFP fluorescence quenching (percent quench): 25.2%
30 uM TC-6683
  YFP fluorescence quenching using TC-6683 (percent quench): −26.235%
30 uM azd0328
  YFP fluorescence quenching using AZD-0328 (percent quench): 71.21%
100 uM TC-6683
  YFP fluorescence quenching using TC-6683 (percent quench): −24.182%
100 uM ach (acetylcholine)
  YFP fluorescence quenching (percent quench): 13.77%
1 mM ach (acetylcholine)
  YFP fluorescence quenching (percent quench): 27.42%
3 mM ach (acetylcholine)
  YFP fluorescence quenching (percent quench): 53.62%
  YFP fluorescence quenching using Facinicline, 30 nM fac: 45.76
  YFP fluorescence quenching using Facinicline, 300 nM fac: 79.43
  YFP fluorescence quenching using Facinicline, 30 uM fac: 84.91
  YFP fluorescence quenching using TC-6987, 1 uM tc6987: 36.07
  YFP fluorescence quenching using TC-6987, 10 uM tc6987: 31.35
  YFP fluorescence quenching using TC-6987, 500 uM tc6987: 28.18
Ligand Facinicline 100 nM
  YFP fluorescence quenching using Facinicline, 100 nM fac: 63.92
Ligand Facinicline 10 uM
  YFP fluorescence quenching using Facinicline, 10 uM fac: 80.1

B2: CODA952: engineered receptor: Y140I in SEQ ID NO: 33 (protein)
chain: MRCSPGGVWLALAASLLHVSLQGEFQRKLYKELVKNYNPLERPVANDSQPLTVYFSLSLLQIMDVDEKNQVLTTNIWLQMSWTDHYLQWNVSEYPGVKTVRFPDGQIWKPDILLYNSADERFDATFHTNVLVNSSGHCQILPPGIFKSSCPMDLKNFPMDVQTCKLKFGSWSYGGWSLDLQMQEADISGYIPNGEWDLVGIPGKRSERFYECCKEPYPDVTFTVTMRRRMGYYLIQMYIPSLLIVILSWISFWINMDAAPARVGLGITTVLTMTTQSSGSRASLPKVSYVKAIDIWMAVCLLFVFSALLEYAAVNFVSRQHKELLRFRRKRRHHKSPMLNLFQEDEAGEGRFNFSAYGMGPACLQAKDGISVKGANNSNTTNPPPAPSKSPEEMRKLFIQRAKKIDKISRIGFPMAFLIFNMFYWIIYKIVRREDVHNQ
modifications: synthetic sequence of chimeric LGIC
[1]
  YFP fluorescence quenching using CNL001 (percent quench): 0.368%
[2]
  YFP fluorescence quenching using CNL001 (percent quench): −1.976%
[3]
  YFP fluorescence quenching using TC-5619/Bradanicline (percent quench): −2.45%
[4]
  YFP fluorescence quenching using CNL001 (percent quench): −3.923%
[5]
  YFP fluorescence quenching using CNL001 (percent quench): 4.348%
30 nM TC-6683
  YFP fluorescence quenching using TC-6683 (percent quench): −27.7%
[6]
  YFP fluorescence quenching using TC-5619/Bradanicline (percent quench): 66.97%
[7]
  YFP fluorescence quenching using CNL001 (percent quench): 74.107%
[8]
  YFP fluorescence quenching using CNL001 (percent quench): 75.866%
50 nM abt (ABT-126)
  YFP fluorescence quenching using ABT-126 (percent quench): −12.34%
[9]
  YFP fluorescence quenching using CNL001 (percent quench): 80.323%
[10]
  YFP fluorescence quenching using CNL001 (percent quench): 81.996%
100 nM CNL002
  YFP fluorescence quenching (percent quench): 32.58%
100 nM abt (ABT-126)
  YFP fluorescence quenching using ABT-126 (percent quench): −11.57%
100 nM azd0328
  YFP fluorescence quenching using AZD-0328 (percent quench): −12.96%
300 nM TC-6683
  YFP fluorescence quenching using TC-6683 (percent quench): −26.87%
300 nM abt (ABT-126)
  YFP fluorescence quenching using ABT-126 (percent quench): −5.21%
300 nM azd0328
  YFP fluorescence quenching using AZD-0328 (percent quench): −13.21%
[11]
  YFP fluorescence quenching using TC-5619/Bradanicline (percent quench): 78.48%
[12]
  YFP fluorescence quenching using CNL001 (percent quench): 83.489%
[13]
  YFP fluorescence quenching using CNL001 (percent quench): 82.208%
1 uM CNL002
  YFP fluorescence quenching (percent quench): 69.08%
1 uM abt (ABT-126)
  YFP fluorescence quenching using ABT-126 (percent quench): 3.93%
3 uM TC-6683
  YFP fluorescence quenching using TC-6683 (percent quench): −31.2%
10 uM ach (acetylcholine)
  YFP fluorescence quenching (percent quench): −1.97%
30 uM CNL002
  YFP fluorescence quenching (percent quench): 73.28%
30 uM TC-6683
  YFP fluorescence quenching using TC-6683 (percent quench): −33.12%
30 uM azd0328
  YFP fluorescence quenching using AZD-0328 (percent quench): 68.5%
100 uM TC-6683
  YFP fluorescence quenching using TC-6683 (percent quench): −24.67%
100 uM ach (acetylcholine)
  YFP fluorescence quenching (percent quench): 2.79%
1 mM ach (acetylcholine)
  YFP fluorescence quenching (percent quench): 58.81%
3 mM ach (acetylcholine)
  YFP fluorescence quenching (percent quench): 66.9%
  YFP fluorescence quenching using Facinicline, 30 nM fac: −8.83
  YFP fluorescence quenching using Facinicline, 300 nM fac: 51.6
  YFP fluorescence quenching using Facinicline, 30 uM fac: 71.01
  YFP fluorescence quenching using TC-6987, 1 uM tc6987: 6.03
  YFP fluorescence quenching using TC-6987, 10 uM tc6987: 2.25
  YFP fluorescence quenching using TC-6987, 500 uM tc6987: −0.24
First column
  YFP fluorescence quenching using Varenicline, 3 nM var: −22.522
  YFP fluorescence quenching using Varenicline, 30 nM var: −15.306
  YFP fluorescence quenching using Varenicline, 300 nM var: −14.671
  YFP fluorescence quenching using Varenicline, 500 nM var: −16.713
  YFP fluorescence quenching using Varenicline, 1 uM var: −15.847
Second column
  YFP fluorescence quenching using Varenicline, 3 nM var: −18.173
  YFP fluorescence quenching using Varenicline, 30 nM var: −12.832
  YFP fluorescence quenching using Varenicline, 300 nM var: −17.016
  YFP fluorescence quenching using Varenicline, 500 nM var: −18.893
  YFP fluorescence quenching using Varenicline, 1 uM var: −16.236
